B1: CPEB3 Ribozyme (parent)
chain: GGGGGCCACAGCAGAAGCGUUCACGUCGCGGCCCCUGUCAGAUUCUGGUGAAUCUGCGAAUUCUGCUGU

Variants of: B1
Experiment: self-cleavage, relative activity (ratio to wild type); higher = more cleavage; co-transcriptional

With GGGGGCCACAGCAGAAGCGUUUACGGCGCGGCCCCUGUCAGAUUCUGGUGAAUCUGCGAAUUCUGCUGU as the variant, how does the self-cleavage read?
The self-cleavage was 0.207.

With GGGGGCCACAGCAGAAGCGUUUACGCCGCGGCCCCUGUCAGAUUCUGGUGAAUCUGCGAAUUCUGCUGU as the variant, how does the self-cleavage read?
Its self-cleavage is 0.279.

For GGGGGCCACAGCAGAAGCGUUCCCGUCGCGGCCCAUGUCAGAUUCUGGUGAAUCUGCGAAUUCUGCUGU, which self-cleavage is on record?
The self-cleavage was 0.26.

With GGGGGCCACAGCAGAAGCGUUCCCGUCGCGGCCCUUGUCAGAUUCUGGUGAAUCUGCGAAUUCUGCUGU as the variant, how does the self-cleavage read?
Its self-cleavage is 0.844.

With GGGGGCCACAGCAGAAGCGUUCCCGUCUCGGCCCCUGUCAGAUUCUGGUGAAUCUGCGAAUUCUGCUGU as the variant, how does the self-cleavage read?
The self-cleavage was 0.2.

With GGGGGCCACAGCAGAAGCGUUGACGUCGCGGCCCCUGUCAGAUUCUGGUGAAACUGCGAAUUCUGCUGU as the variant, how does the self-cleavage read?
Its self-cleavage is 0.136.

For GGGGGCCACAGCAGAAGCGUUGACGUCGCGGCCCCUGUCAGAUUCUGGUGAAUCUGCGAAUUCGGCUGU, which self-cleavage is on record?
Its self-cleavage is 0.157.

With GGGGGCCACAGCAGAAGCGUUCCCGUCGCGGCCCCUGUCAGAUUCUGGUGAAUCUGCGUAUUCUGCUGU as the variant, how does the self-cleavage read?
The self-cleavage was 0.67.

With GGGGGCCACAGCAGAAGCGUUCCCGUCGCGGCCCCUGUCAGAUUCUGGUGAAUCUGCGAUUUCUGCUGU as the variant, how does the self-cleavage read?
The self-cleavage was 0.516.

Which self-cleavage does the source give for GGGGGCCACAGCAGAAGCGUUUACGUCGCAGCCCCUGUCAGAUUCUGGUGAAUCUGCGAAUUCUGCUGU here?
The self-cleavage was 0.164.

With GGGGGCCACAGCAGAAGCGUUUACGUCGCUGCCCCUGUCAGAUUCUGGUGAAUCUGCGAAUUCUGCUGU as the variant, how does the self-cleavage read?
The self-cleavage was 0.221.

For GGGGGCCACAGCAGAAGCGUUCCCGUCGCGGCCCCUGUCAGCUUCUGGUGAAUCUGCGAAUUCUGCUGU, which self-cleavage is on record?
Its self-cleavage is 0.92.

With GGGGGCCACAGCAGAAGCGUUCCCGUCGCGGCCCCUGUCAGUUUCUGGUGAAUCUGCGAAUUCUGCUGU as the variant, how does the self-cleavage read?
Its self-cleavage is 0.869.

Which self-cleavage does the source give for GGGGGCCACAGCAGAAGCGUUCCCGUCGCGGCCCCUGUCAAAUUCUGGUGAAUCUGCGAAUUCUGCUGU here?
The self-cleavage was 0.809.

For GGGGGCCACAGCAGAAGCGUUCCCGUCGCGGCCCCUGUCACAUUCUGGUGAAUCUGCGAAUUCUGCUGU, which self-cleavage is on record?
Its self-cleavage is 0.725.

Which self-cleavage does the source give for GGGGGCCACAGCAGAAGCGUUUACGUCGCGGCCCCUGUCAGAUUCUGAUGAAUCUGCGAAUUCUGCUGU here?
Its self-cleavage is 0.379.

For GGGGGCCACAGCAGAAGCGUUCCCGUCGCGGCCCCUUUCAGAUUCUGGUGAAUCUGCGAAUUCUGCUGU, which self-cleavage is on record?
The self-cleavage was 0.299.

With GGGGGCCACAGCAGAAGCGUUUACGUCGCGGGCCCUGUCAGAUUCUGGUGAAUCUGCGAAUUCUGCUGU as the variant, how does the self-cleavage read?
Its self-cleavage is 0.133.

With GGGGGCCACAGCAGAAGCGUUGACGUCGCGGCCCCUGUCAGAUUCUGGUGAAUCUGCGAAUUCUGCUGG as the variant, how does the self-cleavage read?
Its self-cleavage is 0.349.

For GGGGGCCACAGCAGAAGCGUUGACGUCGCGGCCCCUGUCAGAUUCUGGUGAAUCUGCGAAUUCUGCUGA, which self-cleavage is on record?
The self-cleavage was 0.242.

Which self-cleavage does the source give for GGGGGCCACAGCAGAAGCGUUGACGUCGCGGCCCCUGUCAGAUUCUGGUGAAUCUCCGAAUUCUGCUGU here?
The self-cleavage was 0.158.

Which self-cleavage does the source give for GGGGGCCACAGCAGAAGCGUUGACGUCGCGGCCCCUGUCAGAUUCUGGUGAAUCUACGAAUUCUGCUGU here?
Its self-cleavage is 0.241.

With GGGGGCCACAGCAGAAGCGUUUACGUCGCGGCCCCUGUCAGGUUCUGGUGAAUCUGCGAAUUCUGCUGU as the variant, how does the self-cleavage read?
Its self-cleavage is 0.204.

For GGGGGCCACAGCAGAAGCGUUGACGUCGCGGCCCCUGUCAGAUUCUGGUAAAUCUGCGAAUUCUGCUGU, which self-cleavage is on record?
Its self-cleavage is 0.189.

For GGGGGCCACAGCAGAAGCGUUUACGUCGAGGCCCCUGUCAGAUUCUGGUGAAUCUGCGAAUUCUGCUGU, which self-cleavage is on record?
The self-cleavage was 0.172.

For GGGGGCCACAGCAGAAGCGUUGACGUCGCGGCCCCUGUCAGAUGCUGGUGAAUCUGCGAAUUCUGCUGU, which self-cleavage is on record?
The self-cleavage was 0.16.

For GGGGGCCACAGCAGAAGCGUUGACGUCGCGGCCCCUGUCAGAUUCUGGUGAAUCUGCAAAUUCUGCUGU, which self-cleavage is on record?
Its self-cleavage is 0.103.

With GGGGGCCACAGCAGAAGCGUUUACGUCGCGGCCCCUGUCAGAUUCCGGUGAAUCUGCGAAUUCUGCUGU as the variant, how does the self-cleavage read?
The self-cleavage was 0.369.

For GGGGGCCACAGCAGAAGCGUUUACGUCGCGGCCCCUGUCAGAUUCGGGUGAAUCUGCGAAUUCUGCUGU, which self-cleavage is on record?
Its self-cleavage is 0.274.

With GGGGGCCACAGCAGAAGCGUUUACGUCGCGGCCCCUGUCAGAUUCUGGAGAAUCUGCGAAUUCUGCUGU as the variant, how does the self-cleavage read?
The self-cleavage was 0.297.

Which self-cleavage does the source give for GGGGGCCACAGCAGAAGCGUUCCCUUCGCGGCCCCUGUCAGAUUCUGGUGAAUCUGCGAAUUCUGCUGU here?
Its self-cleavage is 0.176.

For GGGGGCCACAGCAGAAGCGUUCCCCUCGCGGCCCCUGUCAGAUUCUGGUGAAUCUGCGAAUUCUGCUGU, which self-cleavage is on record?
Its self-cleavage is 0.151.

For GGGGGCCACAGCAGAAGCGUUUAAGUCGCGGCCCCUGUCAGAUUCUGGUGAAUCUGCGAAUUCUGCUGU, which self-cleavage is on record?
The self-cleavage was 0.179.

For GGGGGCCACAGCAGAAGCGUUUACGUCGCGGCCCCUGUCAGAUUCUGGUGAAUCUGCGGAUUCUGCUGU, which self-cleavage is on record?
Its self-cleavage is 0.324.

For GGGGGCCACAGCAGAAGCGUUUACGUCGCGGCCCCUGUCAGAUUCUGGUGAAUCUGCGAAUCCUGCUGU, which self-cleavage is on record?
Its self-cleavage is 0.171.

Which self-cleavage does the source give for GGGGGCCACAGCAGAAGCGUUUACGUCGCGGCCCCUGUCAGAUUCUGGUGAAUGUGCGAAUUCUGCUGU here?
The self-cleavage was 0.285.

With GGGGGCCACAGCAGAAGCGUUUACGUCGCGGCCCCUGUCAGAUUCUGGUGAAUUUGCGAAUUCUGCUGU as the variant, how does the self-cleavage read?
Its self-cleavage is 0.349.

Which self-cleavage does the source give for GGGGGCCACAGCAGAAGCGUUCCCGUCGCGGCCCCUGUCUGAUUCUGGUGAAUCUGCGAAUUCUGCUGU here?
Its self-cleavage is 0.79.

With GGGGGCCACAGCAGAAGCGUUCCCGUCGCGGCCCCUGUCCGAUUCUGGUGAAUCUGCGAAUUCUGCUGU as the variant, how does the self-cleavage read?
The self-cleavage was 0.544.

— the RNAGym collection of RNA variant scans (doi:10.7554/elife.80360)
